According to article PMC2926950 (Bioorganic & medicinal chemistry, 2009):
Ends that are not written are not given here.

T1: hDMX_(1-200) (human, UniProt O15151 1-200)
T1 sequence (looked up): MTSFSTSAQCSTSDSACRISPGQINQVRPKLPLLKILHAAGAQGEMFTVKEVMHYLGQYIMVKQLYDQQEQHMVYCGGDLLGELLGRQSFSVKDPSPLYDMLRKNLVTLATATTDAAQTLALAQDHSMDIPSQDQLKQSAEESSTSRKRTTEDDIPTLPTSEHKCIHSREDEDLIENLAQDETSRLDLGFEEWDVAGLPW


What was measured:
hDMX_(1-200) [1] = molecular target: T1, hDMX_(1-200); test: fluorescence polarisation
hDMX_(1-200) [2] = molecular target: T1, hDMX_(1-200); test: fluorescence polarisation; remark: listed apart in the source

IC50 (hDMX_(1-200) [1]) [nM]	Kd (hDMX_(1-200) [2]) [nM]	Binder
3870 ± 389	–	MRPFMDYWEGLN [p53 12/1]
–	841 ± 28.8	SQETFSDLWKLLPENNV (peptide, UniProt P04637 15-31, looked up, also: fluorescent label (flu), position not given here) [p53AD15−31^flu]
–	237 ± 21.5	MRPFMDYWEGLN (also: fluorescent label (flu), position not given here) [p53 12/1^flu]
